Results taken from the DeepSol protein solubility set.

Experiment: soluble on expression in E. coli; label from the status in PepcDB or PDB records

Sequence	soluble on expression in E. coli
MASIKSYKLKNGQERWEYFVSNGRSNGTGRQQKIHKRGFRSHKEALKAAKIIEGQIASEEFVKENPQKMTISKFMNIWINEYKNNVKEGSRIVYRDAIRMYIDPYIGNYQLNKYKPADHQKFINSLFTNKELGKSKNGLSYNTVKIVNAALSNAFKKAQKLGYIKSNPTYFVEFPLDKVKEKTNKEKKLEFYTLEQENLFLDTARNFDDFMWYVFFLIIFDLGLRKGEVMALRWFNFDFRDNILTFDKQRLYRKEQPGQVILDDVKTDAGKRSLKMTNRVRNSVLELYSINYDLTSNVLPMTNSNQDFLFINHRGKNVGLPIRQRSVDTAWHRIIQKANLPKIRIHDGRHTNAARLRQAGVPLEDIKDMLGHKNVKTTEIYAHVSPEVKERAVNKLELYQMQHKKSGN	not soluble
MSLDFNDEIYRELNRICASLSQQCSTYQPEFRTCLDAAFQALRGGKLIRPRMLLGLYNTLVDDDIEVKLNTVLQVAVALELLHFSLLVHDDVIDGDLYRRGKLNFIGQILMHRTPESFAQIQRDPEHLDWAQSNGLLMGNLFLAATHQIFARLDLPHHQRVRLLDLLNHTINDTIVGEFLDVGLSSKAISPNMDIALEMSRLKTATYTFELPMRAAAILAELPQEIETKIGEIGTNLGIAYQLQDDYLSTFGDAAEHGKDAFSDLREGKETTIIAFARDTAKWTDIQDNFGSADLSTSQAERIQHLLIQCGAKNHSLNAISDHLNICRSMIKTLSPQVDPKAQNLLLKQVEQLASRKSEGHHHHHH	soluble
MAHHHHHHMAKNDIWTPLESNPDSLYLYSCKLGQSKLKFVDIYGFNNDLLDMIPQPVQAVIFLYPVNDNIVSENNTNDKHNLKENFDNVWFIKQVKIITLCNMNNILPILYVCFNSIELKNNKSIENLHHEFCGQVENRDDILDVDTHFIVFVQIEGKIIELDGRKDHPTVHCFTNGDNFLYDTGKIIQDKFIEKCKDDLRFSALAVIPNDNFDII	soluble
MAHHHHHHMLHEPVSTANGHMPRRSSLGCRLRSSPFLSCVAYVNTLTCDSLMHALRATVSQRIATGVDVECHRLTSGAAVVSTPTQVHISITSANFVRQRSSRPALLPLLTHPPPPSPSLHPVMSRSRQQQAAEVTLHHFFKTERVIRLECERREAKARLKLIDIMSGDLDDQLLCVAQFKKEWLQSRRVLEEARQAVVQEEGSKRAYVEEEYVRTINTMSRHYHPLSSRVV	not soluble
MTVEPFRNEPIETFQTEEARRAMREALRRVREEFGRHYPLYIGGEWVDTKERMVSLNPSAPSEVVGTTAKAGKAEAEAALEAAWKAFKTWKDWPQEDRSRLLLKAAALMRRRKRELEATLVYEVGKNWVEASADVAEAIDFIEYYARAALRYRYPAVEVVPYPGEDNESFYVPLGAGVVIAPWNFPVAIFTGMIVGPVAVGNTVIAKPAEDAVVVGAKVFEIFHEAGFPPGVVNFLPGVGEEVGAYLVEHPRIRFINFTGSLEVGLKIYEAAGRLAPGQTWFKRAYVETGGKDAIIVDETADFDLAAEGVVVSAYGFQGQKCSAASRLILTQGAYEPVLERVLKRAERLSVGPAEENPDLGPVVSAEQERKVLSYIEIGKNEGQLVLGGKRLEGEGYFIAPTVFTEVPPKARIAQEEIFGPVLSVIRVKDFAEALEVANDTPYGLTGGVYSRKREHLEWARREFHVGNLYFNRKITGALVGVQPFGGFKLSGTNAKTGALDYLRLFLEMKAVAERF	soluble
MGSDKIHHHHHHMIHLSPNDLPVGAPLPWSLLDGDGNLVLGSGNVIPDTRDVALVFRHGELCRLEADSGGDPQDDPLPRGPLGLQVGTLLHVKQPGDNSRAAASRLIGFVEQGLFMTWPQLGGRDLPVQAGDTLLLRGFSGRVIHSFTSTITAVCRSPFRYLVLSAPSQLDQMPVRKAARVPTRMAAYMTQSQESFQEADQDAFSAEMANGAARLVMVSDLSTGGAQIHAAGPAPVIGSRVQLRFRLRTASLDSEIVADAWVRAVTSDTADAEFPSFGISFDVLGEREMTLLQCFIYEQLLTSSGLGVHR	not soluble
SMGTRPRRKKHDYRIALFGGSQPQSCRYFNPKDYSWTDIRCPFEKRRDAACVFWDNVVYILGGSQLFPIKRMDCYNVVKDSWYSKLGPPTPRDSLAACAAEGKIYTSGGSEVGNSALYLFECYDTRTESWHTKPSMLTQRCSHGMVEANGLIYVCGGSLGNNVSGRVLNSCEVYDPATETWTELCPMIEARKNHGLVFVKDKIFAVGGQNGLGGLDNVEYYDIKLNEWKMVSPMPWKGVTVKCAAVGSIVYVLAGFQGVGRLGHILEYNTETDKWVANSKVRAFPVTSCLICVVDTCGANEETLET	soluble
